Source: the supplement of paper PMC7877785
± gives the uncertainty stated by the source.

Experiment: self-splicing fitness, log relative to wild type (ln ratio); higher = more splicing; Tetrahymena group I intron in knt gene, E. coli kanamycin selection, DiMSum; sequences stand for … in CUCUCU…GGAGGGAAAAGUUAUCAGGCAUGCACCUGGUAGCUAGUCUUUAAACCAAUAGAUUGCAUCGGUUUAAAAGGCAAGACCGUCAAAUUGCGGGAAAGGGGUCAACAGCCGUUCAGUACCAAGUCUCAGGGGAAACUUUGAGAUGGCCUUGCAAAGGGUAUGGUAAUAAGCUGACGGACAUGGUCCUAACCACGCAGCCAAGUCCUAAGUCAACAGAUCUUCUGUUGAUAUGGAUGCAGUUCACAGACUAAAUGUCGGUCGGGGAAGAUGUAUUCUUCUCAUAAGAUAUAGUCGGACCUCUCCUUAAUGGGAGCUAGCGGAUGAAGUGAUGCAACACUGGAGCCGCUGGGAACUAAUUUGUAUGCGAAAGUAUAUUGAUUAGUUUUGGAGUACUCGUGGUCG
Summary of the method: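 DiMSum derived fitness as the error-weighted combination of fold changes across replicates, kanamycin versus no kanamycin, normalised to wild type. E. coli BL21(DE3) held the library, which randomised all eight P1ex-region intron nucleotides within the knt kanamycin-resistance gene on pET-22b(+). Six replicate transformations grew overnight at 37°C or 30°C on LB agar with or without 25 μg/mL kanamycin, also containing 100 μg/mL carbenicillin, 50 μM IPTG and 0.2% rhamnose, and pooled colonies were amplicon-sequenced on an Illumina HiSeq 2500.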

Sequence | self-splicing fitness (ln) (30 °C) | self-splicing fitness (ln) (37 °C)
CACAAGCAAUAUUACGGAGC | -3.77 ± 0.29 | -3.25 ± 0.24
CACAAGCAAUAUUACGGAUC | -4.63 ± 0.39 | -2.09 ± 0.13
CACAAGCAAUAUUACGGCAU | -3.26 ± 0.12 | -2.33 ± 0.12
CACAAGCAAUAUUACGGCCU | -4.49 ± 0.24 | -2.74 ± 0.24
CACAAGCAAUAUUACGGGCG | -0.358 ± 0.06 | 0.319 ± 0.07
CACAAGCAAUAUUACGGUAA | -2.26 ± 0.096 | -2.21 ± 0.12
CACAAGCAAUAUUACGGUAC | -4.11 ± 0.22 | -2.03 ± 0.17
CACAAGCAAUAUUACGGUUU | -3.34 ± 0.14 | -2.59 ± 0.19
CACAAGCAAUAUUACGUAGU | -3.4 ± 0.12 | -1.81 ± 0.11
CACAAGCAAUAUUACGUCCA | -3.23 ± 0.2 | -1.59 ± 0.12
CACAAGCAAUAUUACGUCCG | -0.428 ± 0.094 | 0.252 ± 0.12
CACAAGCAAUAUUACGUCGA | -2.62 ± 0.078 | -0.984 ± 0.073
CACAAGCAAUAUUACGUCUU | -3.88 ± 0.17 | -2.25 ± 0.14
CACAAGCAAUAUUACGUGGA | -2.95 ± 0.11 | -2.81 ± 0.13
CACCAGCAAUAUUACGAACG | 0.223 ± 0.063 | 0.344 ± 0.078
CACCAGCAAUAUUACGACCA | -1.94 ± 0.13 | -0.0102 ± 0.16
CACCAGCAAUAUUACGAGAU | -3.87 ± 0.17 | -2.42 ± 0.16
CACCAGCAAUAUUACGAUUU | -3.36 ± 0.15 | -1.52 ± 0.13
CACCAGCAAUAUUACGCAAU | -4.25 ± 0.18 | -4.19 ± 0.16
CACCAGCAAUAUUACGCAUU | -2.6 ± 0.086 | -1.86 ± 0.1
CACCAGCAAUAUUACGCCCA | -1.72 ± 0.099 | -1.71 ± 0.13
CACCAGCAAUAUUACGCGGU | -3.67 ± 0.12 | -3.31 ± 0.15
CACCAGCAAUAUUACGCGUG | -3.74 ± 0.16 | -2.44 ± 0.13
CACCAGCAAUAUUACGCUAA | -2.78 ± 0.13 | -2.33 ± 0.16

Sequence | self-splicing fitness (ln) (30 °C) | self-splicing fitness (ln) (37 °C)
CACCAGCAAUAUUACGCUCG | -0.247 ± 0.062 | 0.219 ± 0.087
CACCAGCAAUAUUACGGAAU | -2.97 ± 0.14 | -2.18 ± 0.16
CACCAGCAAUAUUACGGAUA | -1.42 ± 0.065 | -1.18 ± 0.069
CACCAGCAAUAUUACGGGGC | -4.45 ± 0.22 | -1.29 ± 0.14
CACCAGCAAUAUUACGUAUU | -3.78 ± 0.15 | -2.7 ± 0.16
CACCAGCAAUAUUACGUCCA | -3.43 ± 0.26 | -2.26 ± 0.2
CACCAGCAAUAUUACGUUAA | -3.35 ± 0.095 | -2.37 ± 0.11
CACCAGCAAUAUUACGUUCG | -0.281 ± 0.049 | -0.196 ± 0.062
CACCAGCAAUAUUACGUUUA | -3.33 ± 0.16 | -2.47 ± 0.13
CACGAGCAAUAUUACGACUG | -2.46 ± 0.1 | -0.773 ± 0.12
CACGAGCAAUAUUACGAGGC | -3.19 ± 0.26 | -1.81 ± 0.24
CACGAGCAAUAUUACGAGUA | -2.53 ± 0.16 | -2.11 ± 0.22
CACGAGCAAUAUUACGAUUC | -3.44 ± 0.15 | -2.49 ± 0.17
CACGAGCAAUAUUACGCAAA | -3.96 ± 0.33 | -2.08 ± 0.19
CACGAGCAAUAUUACGCAAC | -1.88 ± 0.44 | -2.56 ± 0.36
CACGAGCAAUAUUACGCUAC |  | -2.5 ± 0.37
CACGAGCAAUAUUACGGACA | -3.03 ± 0.22 | -2.9 ± 0.22
CACGAGCAAUAUUACGGACG | -1.34 ± 0.075 | -0.15 ± 0.1
CACGAGCAAUAUUACGGCAA | -3.69 ± 0.27 | -2.09 ± 0.14
CACGAGCAAUAUUACGGGGG | -3.04 ± 0.19 | -2.52 ± 0.25
CACGAGCAAUAUUACGGGUG | -3.79 ± 0.21 | -2.25 ± 0.18
CACGAGCAAUAUUACGGUGC | -3.91 ± 0.37 | -2.76 ± 0.28
CACGAGCAAUAUUACGUCAG | -3.42 ± 0.13 | -2.32 ± 0.11
CACGAGCAAUAUUACGUCGG | -2.27 ± 0.11 | -2.16 ± 0.17

Sequence | self-splicing fitness (ln) (30 °C) | self-splicing fitness (ln) (37 °C)
CACGAGCAAUAUUACGUCUC | -2.49 ± 0.27 | -3.63 ± 0.34
CACGAGCAAUAUUACGUGAG | -4.08 ± 0.19 | -2.38 ± 0.19
CACGAGCAAUAUUACGUGGU | -3.86 ± 0.24 | -2.25 ± 0.18
CACGAGCAAUAUUACGUGUA | -3.1 ± 0.21 | -2.88 ± 0.2
CACUAGCAAUAUUACGAGUC | -2.82 ± 0.21 | -2.01 ± 0.19
CACUAGCAAUAUUACGCACA | -0.953 ± 0.094 | -0.695 ± 0.08
CACUAGCAAUAUUACGCAGA | -2.54 ± 0.19 | -2.16 ± 0.19
CACUAGCAAUAUUACGCAGU | -4.15 ± 0.42 | -2.78 ± 0.33
CACUAGCAAUAUUACGCCGG | -0.975 ± 0.073 | -0.471 ± 0.1
CACUAGCAAUAUUACGCGCA | -2.52 ± 0.16 | -1.85 ± 0.2
CACUAGCAAUAUUACGCUCA | -2.66 ± 0.21 | -2.08 ± 0.17
CACUAGCAAUAUUACGCUCU | -2.46 ± 0.18 | -0.207 ± 0.13
CACUAGCAAUAUUACGGCAA | -4.1 ± 0.42 | -2.08 ± 0.18
CACUAGCAAUAUUACGGCCC |  | -1.71 ± 0.46
CACUAGCAAUAUUACGGGAA | -2.2 ± 0.18 | -2.29 ± 0.17
CACUAGCAAUAUUACGGGUG | -4.03 ± 0.36 | -2.57 ± 0.21
CACUAGCAAUAUUACGGUGA | -3.47 ± 0.21 | -2.22 ± 0.18
CACUAGCAAUAUUACGGUGC | -2.24 ± 0.22 | -2.43 ± 0.35
CACUAGCAAUAUUACGUCCU | -2.36 ± 0.13 | -1.24 ± 0.18
CACUAGCAAUAUUACGUCUC | -4.18 ± 0.26 | -2.43 ± 0.2
CACUAGCAAUAUUACGUGUC | -3.71 ± 0.14 | -2.93 ± 0.15
CACUAGCAAUAUUACGUUUC | -4.29 ± 0.3 | -1.98 ± 0.29
CAGAAGCAAUAUUACGAAGU | -3.9 ± 0.37 | -2.48 ± 0.26
CAGAAGCAAUAUUACGACAU | -3.128 ± 0.02 | -1.87 ± 0.034

Sequence | self-splicing fitness (ln) (30 °C) | self-splicing fitness (ln) (37 °C)
CAGAAGCAAUAUUACGACCG | 0.169 ± 0.12 | 0.634 ± 0.15
CAGAAGCAAUAUUACGACUG | -3.23 ± 0.21 | -2.48 ± 0.19
CAGAAGCAAUAUUACGAUGC | -4.82 ± 0.42 | -2.92 ± 0.35
CAGAAGCAAUAUUACGAUUC |  | -1.98 ± 0.18
CAGAAGCAAUAUUACGCCAG | -0.586 ± 0.072 | -0.605 ± 0.12
CAGAAGCAAUAUUACGGCAA | -2.48 ± 0.22 | -1.25 ± 0.19
CAGAAGCAAUAUUACGGUAU | -3.21 ± 0.19 | -2.47 ± 0.22
CAGAAGCAAUAUUACGGUUG | -1.2 ± 0.069 | -1.08 ± 0.098
CAGAAGCAAUAUUACGUAAG | -0.12 ± 0.057 | 0.772 ± 0.074
CAGAAGCAAUAUUACGUAUA | -3.84 ± 0.21 | -1.84 ± 0.14
CAGAAGCAAUAUUACGUCAA | -2.46 ± 0.27 | -2.24 ± 0.26
CAGAAGCAAUAUUACGUGAA | -3.07 ± 0.13 | -1.16 ± 0.12
CAGAAGCAAUAUUACGUGGG | -3.34 ± 0.17 | -2.6 ± 0.16
CAGAAGCAAUAUUACGUGUG | -3.01 ± 0.074 | -2.19 ± 0.082
CAGAAGCAAUAUUACGUUCA | -2.03 ± 0.14 | -0.728 ± 0.1
CAGAAGCAAUAUUACGUUGA | -2.84 ± 0.2 | -1.53 ± 0.15
CAGAAGCAAUAUUACGUUGU | -3.38 ± 0.13 | -2.81 ± 0.15
CAGCAGCAAUAUUACGAAGA | -2.72 ± 0.31 | -2.6 ± 0.38
CAGCAGCAAUAUUACGAAUC | -2.38 ± 0.27 | -2.33 ± 0.4
CAGCAGCAAUAUUACGACUU | -0.431 ± 0.068 | 0.69 ± 0.083
CAGCAGCAAUAUUACGAGCG | -0.131 ± 0.053 | -0.0622 ± 0.066
CAGCAGCAAUAUUACGAGUA | -3.05 ± 0.19 | -1.77 ± 0.18
CAGCAGCAAUAUUACGAGUU | -3.95 ± 0.2 | -2.15 ± 0.13
CAGCAGCAAUAUUACGCGAG | -2.74 ± 0.15 | -1.7 ± 0.15
